Consider one substance from article PMC2770460.

This assay has as its target recombinant full-length mammalian Tpr (6xHis-Tpr) (not stated (mammalian)) (UniProt P12270). Nature of the assay: ELISA; solid phase binding assay: Maxisorp microtiter plates coated with 25 ng of Tpr or C-Tpr; increasing concentrations of the soluble protein; bound protein detected with primary antibodies and horseradish peroxidase-conjugated secondary antibodies (TMB); apparent Kd from B = Bmax x Y/(Kd + Y); CRM1, NES and RanGTP at equimolar concentrations. (In general: In an ELISA, binding on a coated surface is turned into a signal by an enzyme label.)

recombinant full-length mammalian Tpr (6xHis-Tpr) (not stated (mammalian)), sequence (P12270 whole entry): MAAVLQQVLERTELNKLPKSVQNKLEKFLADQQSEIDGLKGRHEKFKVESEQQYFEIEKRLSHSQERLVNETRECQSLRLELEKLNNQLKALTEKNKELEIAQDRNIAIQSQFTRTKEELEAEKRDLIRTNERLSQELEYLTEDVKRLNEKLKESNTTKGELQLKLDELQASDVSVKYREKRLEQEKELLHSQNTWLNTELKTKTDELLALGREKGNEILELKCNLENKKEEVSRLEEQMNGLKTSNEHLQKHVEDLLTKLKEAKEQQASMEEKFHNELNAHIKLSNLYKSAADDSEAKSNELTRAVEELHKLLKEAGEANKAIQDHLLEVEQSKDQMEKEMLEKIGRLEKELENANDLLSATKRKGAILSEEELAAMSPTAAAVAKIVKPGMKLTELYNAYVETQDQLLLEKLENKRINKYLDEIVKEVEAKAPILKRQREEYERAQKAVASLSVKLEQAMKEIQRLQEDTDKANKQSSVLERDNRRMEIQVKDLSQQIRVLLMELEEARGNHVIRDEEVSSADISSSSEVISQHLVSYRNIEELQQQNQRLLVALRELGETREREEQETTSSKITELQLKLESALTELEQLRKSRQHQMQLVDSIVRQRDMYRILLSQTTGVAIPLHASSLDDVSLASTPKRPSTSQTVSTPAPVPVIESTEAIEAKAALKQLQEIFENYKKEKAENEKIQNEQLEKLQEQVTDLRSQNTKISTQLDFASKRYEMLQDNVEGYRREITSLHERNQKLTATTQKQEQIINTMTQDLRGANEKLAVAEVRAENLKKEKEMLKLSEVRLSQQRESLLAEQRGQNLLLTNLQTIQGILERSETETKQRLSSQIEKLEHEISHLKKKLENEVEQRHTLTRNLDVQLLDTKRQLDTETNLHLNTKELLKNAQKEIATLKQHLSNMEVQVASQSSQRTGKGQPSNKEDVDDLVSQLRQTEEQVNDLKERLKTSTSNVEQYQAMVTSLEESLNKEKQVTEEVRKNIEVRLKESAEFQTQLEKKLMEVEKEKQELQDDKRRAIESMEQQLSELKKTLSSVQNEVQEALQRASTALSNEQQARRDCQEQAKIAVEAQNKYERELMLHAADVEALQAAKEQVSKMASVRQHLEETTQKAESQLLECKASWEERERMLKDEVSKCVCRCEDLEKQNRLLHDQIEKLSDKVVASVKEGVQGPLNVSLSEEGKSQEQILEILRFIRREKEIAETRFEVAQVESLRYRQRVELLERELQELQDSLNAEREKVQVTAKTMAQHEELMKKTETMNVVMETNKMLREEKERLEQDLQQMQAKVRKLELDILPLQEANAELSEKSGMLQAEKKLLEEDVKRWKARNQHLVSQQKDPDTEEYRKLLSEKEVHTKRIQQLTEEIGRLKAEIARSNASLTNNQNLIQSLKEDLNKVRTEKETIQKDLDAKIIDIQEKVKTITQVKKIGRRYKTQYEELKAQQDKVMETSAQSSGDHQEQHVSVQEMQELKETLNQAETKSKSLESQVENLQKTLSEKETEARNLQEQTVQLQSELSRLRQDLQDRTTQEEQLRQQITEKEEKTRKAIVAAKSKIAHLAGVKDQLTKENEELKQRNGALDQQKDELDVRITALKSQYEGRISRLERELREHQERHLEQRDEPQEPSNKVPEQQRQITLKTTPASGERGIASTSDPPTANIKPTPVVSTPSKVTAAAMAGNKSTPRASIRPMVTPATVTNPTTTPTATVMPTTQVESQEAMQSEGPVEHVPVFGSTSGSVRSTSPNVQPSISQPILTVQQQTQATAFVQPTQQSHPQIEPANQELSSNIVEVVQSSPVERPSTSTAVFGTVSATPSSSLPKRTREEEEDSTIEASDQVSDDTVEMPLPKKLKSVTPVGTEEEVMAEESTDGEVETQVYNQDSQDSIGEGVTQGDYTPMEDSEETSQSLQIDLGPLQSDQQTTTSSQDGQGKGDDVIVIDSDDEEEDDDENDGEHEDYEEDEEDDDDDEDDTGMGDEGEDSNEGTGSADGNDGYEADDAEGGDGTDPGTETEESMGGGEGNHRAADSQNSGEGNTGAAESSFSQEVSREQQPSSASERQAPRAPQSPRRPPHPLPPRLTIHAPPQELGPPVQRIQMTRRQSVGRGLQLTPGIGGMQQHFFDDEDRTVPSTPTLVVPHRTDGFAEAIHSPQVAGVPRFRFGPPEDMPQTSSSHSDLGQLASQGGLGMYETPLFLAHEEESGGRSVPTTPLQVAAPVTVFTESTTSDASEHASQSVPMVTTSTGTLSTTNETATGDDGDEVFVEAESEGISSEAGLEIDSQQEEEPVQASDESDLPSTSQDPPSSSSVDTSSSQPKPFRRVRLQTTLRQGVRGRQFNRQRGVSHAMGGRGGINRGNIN

Turning to “His-importin α (from UniProt P52292 1-529) (natural protein)”, the Kd amounted to 21.5 nM.
